Results taken from PMC4027156.
Changes are numbered by the printed parent chain.

Legend:
Settings in all cases: BLI in buffer A (5 mM HEPES pH 7.5, 10 mM NaCl), 2.5-10 uM protein; CD with 7.5 or 15 uM ds-(dCdG)6, protein/DNA 0-8, buffer not shown in material; temperature …
[1] = test system: yabZαE3L (yaba-like disease virus); test: BLI
[2] = target: T1, caZαPKZ R39A/K56A R39A;K56A (Carassius auratus) (UniProt Q7T2M9); test: CD B-to-Z transition
T1 sequence: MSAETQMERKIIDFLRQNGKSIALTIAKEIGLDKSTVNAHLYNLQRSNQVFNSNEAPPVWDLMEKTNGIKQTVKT

[3] = target: T2, caZαPKZ S35A/K56A/P57A S35A;K56A;P57A (Carassius auratus) (UniProt Q7T2M9); test: CD B-to-Z transition
T2 sequence: T1 sequence with S35A, A39R, P57A

[4] = target: T3, caZαPKZ K56A/P57A K56A;P57A (Carassius auratus) (UniProt Q7T2M9); test: CD B-to-Z transition
T3 sequence: T1 sequence with A39R, P57A

| Sequence | Kd [1] | binding signal (% of WT activity) [2] | binding signal (% of WT activity) [3] | binding signal (% of WT activity) [4] |
| --- | --- | --- | --- | --- |
| ATTATATCGCGCGCGCGCGCGCGCGCGCG / CGCGCGCGCGCGCGCGCGCG [biotin-ATTATAT(CG)10 duplex] | 87.2 nM |  |  |  |
| CGCGCGCGCGCG (double strand) [ds-(dCdG)6] |  | 80 | 50 | 50 |
